Assay results reported in the supplement of paper PMC10724198.
± gives the standard deviation of the averaged measurements.

system: Saccharomyces cerevisiae; assay: protein stability index of tFT-peptide fusion (C-terminal peptide) (PSI (0-1 scale)); higher = more stable (slower turnover); settings: genetic background: cdc34-1; temperature: 37 C
Description: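 MPS profiling in S. cerevisiae of the tFT-X12 degron library: putative degron peptides plus stable controls, 12 aa, fused to the C-terminus of a sfGFP-mCherry timer. Cells are FACS-sorted into 8 mCherry/sfGFP bins and deep-sequenced. PSI runs from 0 (unstable) to 1 (stable). Backgrounds are wild type, das1Δ and doa10Δ at 30 °C, and wild type, das1Δ, cdc34-1 and cdc53-1 at 37 °C; 2-3 technical replicates each.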
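Note: PSI is a weighted mean of sequencing reads over stability bins, variants kept only with over 10 reads, mCherry proximal and sfGFP distal, peptide attached via GGGS linker.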

Row | Sequence | protein stability index
1 | CVGLYCLFVLLG | 0.289 ± 0.0046
2 | CVISLVTAVRLF | 0.514 ± 0.023
3 | DDVRFLLWGLCC | 0.48 ± 0.022
4 | DQPLWIGVLAYC | 0.434 ± 0.04
5 | DRRYIISLIYIL | 0.32 ± 0.022
6 | DSGMLDFLLMAW | 0.541 ± 0.039
7 | DSTLLYRPPSPA | 0.672 ± 0.032
8 | DVVVIFGILCYC | 0.0711 ± 0.0034
9 | DYRCWCAILVSS | 0.162 ± 0.0075
10 | DYSVIPSLALLP | 0.692 ± 0.013
11 | ECLRLTTKKKIN | 0.581 ± 0.079
12 | EDRKRNKERRWT | 0.679 ± 0.024
13 | EFWWPFDRRGVI | 0.76 ± 0.037
14 | EKKRERQKGEME | 0.656 ± 0.055
15 | ETQKEKRENAKP | 0.649 ± 0.028
16 | EVGFHRRWVALS | 0.612 ± 0.052
17 | EWGLGEIVVKVA | 0.563 ± 0.025
18 | FAFPTPPPLLFD | 0.68 ± 0.047
19 | FCGWLGVYLVKG | 0.5909 ± 0.001
20 | FCSFSWFLFLRS | 0.211 ± 0.0051
21 | FCVLLFCAVSDL | 0.289 ± 0.032
22 | FCVVFFLSLVFL | 0.457 ± 0.01
23 | FFDLSLYSLCLC | 0.623 ± 0.019
24 | FFFFPVYFIFVV | 0.272 ± 0.014
25 | FFFFSMFSFFIP | 0.503 ± 0.056
26 | FFFVLVSGWWGV | 0.181 ± 0.0054

Row | Sequence | protein stability index
27 | FFLDRLVIRLIA | 0.1487 ± 0.00028
28 | FFLFFLSFGCFL | 0.489 ± 0.078
29 | FFLKPVPSLFLC | 0.388 ± 0.015
30 | FFLVLWSSLLSP | 0.457 ± 0.025
31 | FFRPWRLVGCLV | 0.263 ± 0.0038
32 | FFSFTVLVSYGF | 0.18 ± 0.011
33 | FFSLMFVFLTVF | 0.113 ± 0.018
34 | FFSLRRAVTVSA | 0.208 ± 0.013
35 | FFSPFFFFLFRL | 0.306 ± 0.11
36 | FFVISVVLCLLV | 0.377 ± 0.015
37 | FFVRSWWVELLF | 0.642 ± 0.029
38 | FFYRFQDLPRIC | 0.681 ± 0.018
39 | FGFFLFIFFFFR | 0.246 ± 0.044
40 | FGFFRLVIVCFR | 0.135 ± 0.046
41 | FGFWGVVSCCNA | 0.559 ± 0.045
42 | FGPRLLRVMRLL | 0.562 ± 0.017
43 | FGVLFFVFVFVC | 0.149 ± 0.015
44 | FGVLLVWWYGLF | 0.236 ± 0.016
45 | FGVSLFLPLSVV | 0.4023 ± 0.0021
46 | FIFYYTVLLLCR | 0.0366 ± 0.0015
47 | FIICAASWFFLG | 0.456 ± 0.025
48 | FILATGKGRWVV | 0.686 ± 0.044
49 | FILSLSFVFSRP | 0.415 ± 0.037
50 | FIRLTFLRLSCI | 0.546 ± 0.021
51 | FLASLCFFPLLC | 0.388 ± 0.041
52 | FLAWSVGILCRV | 0.228 ± 0.023

Row | Sequence | protein stability index
53 | FLCLFFLAVIKL | 0.241 ± 0.018
54 | FLFLLLFLLLCC | 0.467 ± 0.0069
55 | FLFPFLSVLFLL | 0.477 ± 0.014
56 | FLFSVVFFFFSL | 0.368 ± 0.028
57 | FLLEVFVLGRTL | 0.627 ± 0.0076
58 | FLLFSFFFFFFF | 0.44531 ± 9.3e-05
59 | FLLPILSSSPVL | 0.692 ± 0.063
60 | FLRLSFLIFPLH | 0.546 ± 0.029
61 | FLSCSRRPLRCW | 0.40972 ± 0.00036
62 | FMPFSLLALFVW | 0.286 ± 0.00069
63 | FNLTCLLISFFN | 0.593 ± 0.02
64 | FPCIFFFCLFIL | 0.209 ± 0.039
65 | FPLGMFWVCFFV | 0.423 ± 0.026
66 | FPYARHLSVLLL | 0.598 ± 0.04
67 | FRFSCLFSLFLS | 0.413 ± 0.072
68 | FRLFSLWFCWVR | 0.13 ± 0.0073
69 | FRVSAFFLPFLS | 0.652 ± 0.031
70 | FSFLLYASLVTH | 0.298 ± 0.016
71 | FSGFPLTLSPPL | 0.717 ± 0.029
72 | FSVLLLANFCFF | 0.498 ± 0.031
73 | FSVLRLVIVSLL | 0.227 ± 0.012
74 | FSVSYFRLVRLC | 0.39 ± 0.017
75 | FTNLDYTKEKNN | 0.423 ± 0.15
76 | FVIVSSCIGYAL | 0.603 ± 0.039
77 | FVLLSVCFFGCL | 0.306 ± 0.011
78 | FVMLSFLVSSLP | 0.404 ± 0.006

same assay, conditions: genetic background: cdc53-1; temperature: 37 C

Row | Sequence | protein stability index
79 | CVGLYCLFVLLG | 0.357 ± 0.0088
80 | CVISLVTAVRLF | 0.5526 ± 0.0029
81 | DDVRFLLWGLCC | 0.459 ± 0.018
82 | DQPLWIGVLAYC | 0.4712 ± 0.00085
83 | DRRYIISLIYIL | 0.5045 ± 0.0033
84 | DSGMLDFLLMAW | 0.545 ± 0.015
85 | DSTLLYRPPSPA | 0.713 ± 0.02
86 | DVVVIFGILCYC | 0.16 ± 0.0049
87 | DYRCWCAILVSS | 0.187 ± 0.0085
88 | DYSVIPSLALLP | 0.73118 ± 3.3e-05
89 | ECLRLTTKKKIN | 0.733 ± 0.069
90 | EDRKRNKERRWT | 0.702 ± 0.013
91 | EFWWPFDRRGVI | 0.807 ± 0.011
92 | EKKRERQKGEME | 0.7542 ± 0.0053
93 | ETQKEKRENAKP | 0.70222 ± 0.00044
94 | EVGFHRRWVALS | 0.7235 ± 0.007
95 | EWGLGEIVVKVA | 0.654 ± 0.013
96 | FAFPTPPPLLFD | 0.7511 ± 0.00095
97 | FCGWLGVYLVKG | 0.6581 ± 0.00083
98 | FCSFSWFLFLRS | 0.123 ± 0.023
99 | FCVLLFCAVSDL | 0.383 ± 0.03
100 | FCVVFFLSLVFL | 0.491 ± 0.03
101 | FFDLSLYSLCLC | 0.69 ± 0.059
102 | FFFFPVYFIFVV | 0.288 ± 0.05
103 | FFFFSMFSFFIP | 0.576 ± 0.0068
104 | FFFVLVSGWWGV | 0.344 ± 0.059

Row | Sequence | protein stability index
105 | FFLDRLVIRLIA | 0.173 ± 0.0047
106 | FFLFFLSFGCFL | 0.533 ± 0.031
107 | FFLKPVPSLFLC | 0.5971 ± 0.005
108 | FFLVLWSSLLSP | 0.5545 ± 0.00086
109 | FFRPWRLVGCLV | 0.312 ± 0.011
110 | FFSFTVLVSYGF | 0.256 ± 0.015
111 | FFSLMFVFLTVF | 0.131 ± 0.043
112 | FFSLRRAVTVSA | 0.217 ± 0.0034
113 | FFSPFFFFLFRL | 0.309 ± 0.0057
114 | FFVISVVLCLLV | 0.48 ± 0.016
115 | FFVRSWWVELLF | 0.719 ± 0.017
116 | FFYRFQDLPRIC | 0.743 ± 0.037
117 | FGFFLFIFFFFR | 0.295 ± 0.027
118 | FGFFRLVIVCFR | 0.19 ± 0.021
119 | FGFWGVVSCCNA | 0.566 ± 0.03
120 | FGPRLLRVMRLL | 0.712 ± 0.018
121 | FGVLFFVFVFVC | 0.243 ± 0.051
122 | FGVLLVWWYGLF | 0.367 ± 0.027
123 | FGVSLFLPLSVV | 0.415 ± 0.006
124 | FIFYYTVLLLCR | 0.0671 ± 0.0072
125 | FIICAASWFFLG | 0.624 ± 0.032
126 | FILATGKGRWVV | 0.776 ± 0.017
127 | FILSLSFVFSRP | 0.501 ± 0.011
128 | FIRLTFLRLSCI | 0.623 ± 0.03
129 | FLASLCFFPLLC | 0.413 ± 0.031
130 | FLAWSVGILCRV | 0.225 ± 0.022

Row | Sequence | protein stability index
131 | FLCLFFLAVIKL | 0.188 ± 0.012
132 | FLFLLLFLLLCC | 0.488 ± 0.0017
133 | FLFPFLSVLFLL | 0.506 ± 0.0071
134 | FLFSVVFFFFSL | 0.4558 ± 0.0032
135 | FLLEVFVLGRTL | 0.653 ± 0.023
136 | FLLFSFFFFFFF | 0.4388 ± 0.0028
137 | FLLPILSSSPVL | 0.742 ± 0.019
138 | FLRLSFLIFPLH | 0.6295 ± 0.00058
139 | FLSCSRRPLRCW | 0.445 ± 0.048
140 | FMPFSLLALFVW | 0.318 ± 0.0033
141 | FNLTCLLISFFN | 0.609 ± 0.063
142 | FPCIFFFCLFIL | 0.197 ± 0.0039
143 | FPLGMFWVCFFV | 0.464 ± 0.0058
144 | FPYARHLSVLLL | 0.662 ± 0.02
145 | FRFSCLFSLFLS | 0.499 ± 0.01
146 | FRLFSLWFCWVR | 0.0999 ± 0.022
147 | FRVSAFFLPFLS | 0.715 ± 0.008
148 | FSFLLYASLVTH | 0.343 ± 0.032
149 | FSGFPLTLSPPL | 0.7715 ± 0.0044
150 | FSVLLLANFCFF | 0.516 ± 0.0072
151 | FSVLRLVIVSLL | 0.503 ± 0.067
152 | FSVSYFRLVRLC | 0.572 ± 0.0077
153 | FTNLDYTKEKNN | 0.6798 ± 0.0014
154 | FVIVSSCIGYAL | 0.641 ± 0.036
155 | FVLLSVCFFGCL | 0.4219 ± 0.0028
156 | FVMLSFLVSSLP | 0.489 ± 0.039
